The series deals with Cy5-EF-Tu E348C (AV) C137A,C255V,E348C (Escherichia coli) (UniProt P0CE48). Particulars: native tRNA modifications; 3'-aminoacylated with Phe; Cy3 on acp3U47; FRET titration; GTP form, 100 uM GTP, 8 mM Mg, 25 C.

pKd: −log10 of the molar value.

A word on the pKd: it is −log10 of the Kd, conventionally taken in molar units. Read a low pKd as a large Kd. Consider Phe-tRNAPhe(Cy3), for which the pKd is 7.96.

(Values after patent publication US10174358.)
